# Source: US20220289855A1 (University of California, published 2022)
# B1: purified mouse VCAM-Fc (Fc fusion, UniProt P29533 25-698, looked up)
# chain: FKIEISPEYKTIAQIGDSMALTCSTTGCESPLFSWRTQIDSPLNAKVRTEGSKSVLTMEPVSFENEHSYLCTATCGSGKLERSIHVDIYSFPKDPEIQFSGPLEVGKPVTVKCLAPDIYPVYRLEIDLFKGDQLMNRQEFSSEEMTKSLETKSLEVTFTPVIEDIGKALVCRAKLHIDQIDSTLKERETVKELQVYISPRNTTISVHPSTRLQEGGAVTMTCSSEGLPAPEIFWGRKLDNEVLQLLSGNATLTLIAMRMEDSGVYVCEGVNLIGRDKAEVELVVQEKPFIVDISPGSQVAAQVGDSVVLTCAAIGCDSPSFSWRTQTDSPLNGVVRNEGAKSTLVLSSVGFEDEHSYLCAVTCLQRTLEKRTQVEVYSFPEDPVIKMSGPLVHGRPVTVNCTVPNVYPFDHLEIELLKGETTLMKKYFLEEMGIKSLETKILETTFIPTIEDTGKSLVCLARLHSGEMESEPKQRQSVQPLYVNVAPKETTIWVSPSPILEEGSPVNLTCSSDGIPAPKILWSRQLNNGELQPLSENTTLTFMSTKRDDSGIYVCEGINEAGISRKSVELIIQVSPKDIQLTVFPSKSVKEGDTVIISCTCGNVPETWIILKKKAKTGDMVLKSVDGSYTIRQAQLQDAGIYECESKTEVGSQLRSLTLDVKGKEHNKDYFSPE
# notes: also called VCAM-1; soluble VCAM-1; not shown: Fc part, detected with anti-Human Fc
# Target: T1, integrin α4β1 (mouse, UniProt Q00651 41-1039; P09055 21-798)
# T1 construct: whole, on cells
# T1 sequence (Q00651 41-1039, chain 1 of 2): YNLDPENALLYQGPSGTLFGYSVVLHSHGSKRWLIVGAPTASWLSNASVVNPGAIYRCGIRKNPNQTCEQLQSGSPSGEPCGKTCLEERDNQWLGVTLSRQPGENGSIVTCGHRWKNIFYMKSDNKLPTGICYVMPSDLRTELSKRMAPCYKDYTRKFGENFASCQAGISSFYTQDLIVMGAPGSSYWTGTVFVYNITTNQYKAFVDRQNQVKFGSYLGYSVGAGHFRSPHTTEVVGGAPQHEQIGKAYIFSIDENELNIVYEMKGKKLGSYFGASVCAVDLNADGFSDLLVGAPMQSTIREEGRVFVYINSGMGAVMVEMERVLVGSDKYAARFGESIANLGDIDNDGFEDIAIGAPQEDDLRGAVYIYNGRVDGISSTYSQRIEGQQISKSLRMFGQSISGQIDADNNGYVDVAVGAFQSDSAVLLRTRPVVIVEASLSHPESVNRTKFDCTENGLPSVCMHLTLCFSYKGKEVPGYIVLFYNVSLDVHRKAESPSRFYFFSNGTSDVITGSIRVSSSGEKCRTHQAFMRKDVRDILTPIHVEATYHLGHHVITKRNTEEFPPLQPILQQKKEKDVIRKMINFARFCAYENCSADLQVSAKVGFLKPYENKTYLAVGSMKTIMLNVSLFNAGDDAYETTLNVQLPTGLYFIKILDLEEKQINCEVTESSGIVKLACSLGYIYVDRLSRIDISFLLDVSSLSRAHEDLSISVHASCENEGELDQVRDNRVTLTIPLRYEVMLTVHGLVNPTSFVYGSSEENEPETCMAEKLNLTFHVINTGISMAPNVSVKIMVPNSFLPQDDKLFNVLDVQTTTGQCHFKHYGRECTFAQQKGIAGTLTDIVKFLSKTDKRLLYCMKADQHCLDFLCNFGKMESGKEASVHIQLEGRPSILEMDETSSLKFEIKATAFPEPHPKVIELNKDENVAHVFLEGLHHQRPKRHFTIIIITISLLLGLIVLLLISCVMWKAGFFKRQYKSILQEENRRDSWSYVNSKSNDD
# T1 sequence (P09055 21-798, chain 2 of 2): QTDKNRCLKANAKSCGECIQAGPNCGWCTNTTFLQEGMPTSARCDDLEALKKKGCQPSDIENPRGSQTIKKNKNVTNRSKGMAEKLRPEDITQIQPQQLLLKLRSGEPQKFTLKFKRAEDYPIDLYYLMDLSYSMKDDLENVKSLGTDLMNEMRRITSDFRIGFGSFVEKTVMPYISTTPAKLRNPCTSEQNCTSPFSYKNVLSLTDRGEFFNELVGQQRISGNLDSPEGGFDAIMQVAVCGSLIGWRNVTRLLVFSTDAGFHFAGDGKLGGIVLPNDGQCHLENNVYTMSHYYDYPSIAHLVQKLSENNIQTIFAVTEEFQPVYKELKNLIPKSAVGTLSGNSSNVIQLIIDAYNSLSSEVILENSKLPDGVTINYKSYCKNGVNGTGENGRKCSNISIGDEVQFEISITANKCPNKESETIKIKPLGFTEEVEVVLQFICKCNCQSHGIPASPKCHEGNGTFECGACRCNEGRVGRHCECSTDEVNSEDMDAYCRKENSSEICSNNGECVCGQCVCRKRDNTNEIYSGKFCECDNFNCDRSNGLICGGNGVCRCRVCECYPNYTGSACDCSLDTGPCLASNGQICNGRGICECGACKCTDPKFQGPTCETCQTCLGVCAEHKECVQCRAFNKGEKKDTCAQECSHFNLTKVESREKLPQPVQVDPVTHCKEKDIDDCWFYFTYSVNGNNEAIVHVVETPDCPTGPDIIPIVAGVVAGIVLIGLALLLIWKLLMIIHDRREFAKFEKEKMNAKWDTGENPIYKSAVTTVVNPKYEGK
# Assay: flow cytometry, soluble ligand on mouse Tregs
# Experimental: Splenic lymphocytes were isolated from Foxp3^GFP mice and were washed and resuspended in HBSS containing 0.1% BSA and 1 mM Ca²⁺/Mg²⁺, prior to incubation with integrin ligands for […] at 37° C. in the presence of IL-2 (10 ug/ml), rat-PC61 (5 ug/ml, Bioxcell), rat-rIgG (5 ug/ml, Bioxcell), murine-PC61 (5 ug/ml) and murine-IgG (5 ug/ml, Bioxcell). Cells were then incubated with AlexFluor647-conjugated anti-human IgG (1:200) for […] at 4° C. Then cells were washed twice before flow cytometry analysis using an Accuri C6 Plus (BD Biosciences). Data were analyzed using FlowJo software.
binder,measurement,value
B1,binding result,binds
